Test results from patent US20220072120A1 (University of Washington, published 2022).

Biological target: A/Hong_Kong/4801/2014 (H3N2) HA 1-676 Y98F GG lkr dn5B.SA (influenza A virus A/Hong_Kong/4801/2014 …)
Experiment: in vitro co-assembly; SEC, SDS-PAGE of elution peaks, negative-stain EM

B1: I53-dn5 A (designed binder)
chain: MGKYDGSKLRIGILHARWNAEIILALVLGALKRLQEFGVKRENIIIETVPGSFELPYGSKLFVEKQKRLGKPLDAIIPIGVLIKGSTMHFEYICDSTTHQLMKLNFELGIPVIFGVLTCLTDEQAEARAGLIEGKMHNHGEDWGAAAVEMATKFN
- binding result: binds
